Source: US20240270866A1 (Alector, published 2024)
Residue numbers refer to the chain shown, from its start.

T1: mouse SIRPA overexpressed on CHO cells (mouse, UniProt P97797 32-513)
T1 construct: also called CHO-muSIRPA
T1 sequence: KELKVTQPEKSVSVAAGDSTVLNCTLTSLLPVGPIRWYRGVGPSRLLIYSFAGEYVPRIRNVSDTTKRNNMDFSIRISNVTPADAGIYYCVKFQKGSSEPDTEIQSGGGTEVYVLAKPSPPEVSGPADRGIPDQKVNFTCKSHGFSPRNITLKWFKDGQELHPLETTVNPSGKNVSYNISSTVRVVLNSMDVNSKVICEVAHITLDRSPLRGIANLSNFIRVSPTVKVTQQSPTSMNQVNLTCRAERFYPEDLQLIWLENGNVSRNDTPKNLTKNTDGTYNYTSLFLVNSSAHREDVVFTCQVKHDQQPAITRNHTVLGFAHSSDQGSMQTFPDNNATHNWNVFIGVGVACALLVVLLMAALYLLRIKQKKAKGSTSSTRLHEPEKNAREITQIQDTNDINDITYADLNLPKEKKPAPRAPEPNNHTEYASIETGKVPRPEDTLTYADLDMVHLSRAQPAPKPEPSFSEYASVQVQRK

T2: Mouse SIRPA D1 Fc (mouse, UniProt P97797 32-150, limits assumed)
T2 sequence: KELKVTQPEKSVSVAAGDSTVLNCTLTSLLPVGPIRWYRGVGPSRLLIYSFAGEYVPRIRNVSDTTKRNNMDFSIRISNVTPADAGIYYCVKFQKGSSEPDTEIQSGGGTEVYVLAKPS

B1: SA-30 (antibody, V domains shown)
VH: QVQLVESGGGVVQPGRSLRLSCAASGFTFSSYGMHWVRQAPGKGLEWVAVIWYDGSNKYYADSVKGRFTISRDNSKNTLYLQMNSLRAEDTAVYYCARDTGSATTMWLYGMDVWGKGTTVTVSS
VL: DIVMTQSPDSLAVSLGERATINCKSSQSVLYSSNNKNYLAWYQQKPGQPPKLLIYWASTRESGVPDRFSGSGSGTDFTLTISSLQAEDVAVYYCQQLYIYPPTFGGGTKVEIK
notes: IgG
B2: SA-11 (antibody, V domains shown)
VH: EVQLVESGGGLVQPGRSLRISCAASGFTFGDYAMHWVRQAPGKGLEWVSGISWNSGSIGYADSVKGRFTISRDNAKNSLYLQMNSLRAEDTALYYCAKTRYGYYSYDFDLWGRGTLVTVSS
VL: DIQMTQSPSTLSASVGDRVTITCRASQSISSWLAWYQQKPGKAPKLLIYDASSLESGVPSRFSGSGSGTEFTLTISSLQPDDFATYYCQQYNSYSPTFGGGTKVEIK
notes: IgG
B3: SA-17 (antibody, V domains shown)
VH: QVQLVQSGAEVKKPGSSVKVSCKASGGTFSSYAISWVRQAPGQGLEWMGGIIPIFGTASYAQKFQGRVTITADESTSTAYMELSSLRSEDTAVYYCARDLSAFYVGPFDYWGQGTLVTVSS
VL: EIVMTQSPATLSVSPGERATLSCRASQSVSSSLAWYQQKPGQAPRLLIYGASTRATGIPARFSGSGSGTEFTLTISSLQSEDFAVYYCQQDYIWPLTFGGGTKVEIK
notes: IgG
B4: SA-15 (antibody, V domains shown)
VH: QVQLVQSGAEVKKPGSSVKVSCKASGGTFSSYAISWVRQAPGQGLEWMGGIIPIFGTANYAQKFQGRVTITADESTSTAYMELSSLRSEDTAVYYCARDGSYSYATYWGQGTLVTVSS
VL: EIVLTQSPATLSLSPGERATLSCRASQSVSSYLAWYQQKPGQAPRLLIYDASNRATGIPARFSGSGSGTDFTLTISSLEPEDFAVYYCQQPYNFPLTFGGGTKVEIK
notes: IgG
B5: SA-10 (antibody, V domains shown)
VH: EVQLVESGGGLVQPGRSLRLSCAASGFTFDDYAMHWVRQAPGKGLEWVSGITWNSGSIGYADSVKGRFTISRDNAKNSLYLQMNSLRAEDTALYYCAKGKQYSANYFDYWGQGTLVTVSS
VL: DIQMTQSPSTLSASVGDRVTITCRASQSISSWLAWYQQKPGKAPKLLIYEASSLESGVPSRFSGSGSGTEFTLTISSLQPDDFATYYCQQDNSLPYTFGGGTKVEIK
notes: IgG
B6: SA-18 (antibody, V domains shown)
VH: EVQLVESGGGLVQPGGSLRLSCAASGFTFSSYWMSWVRQAPGKGLEWVANIKSDGSEKYYVDSVKGRFTISRDNAKNSLYLQMNSLRAEDTAVYYCARDLSYEPSYPFDIWGQGTMVTVSS
VL: DIQMTQSPSSVSASVGDRVTITCRASQGISSWLAWYQQKPGKAPKLLIYAASSLQSGVPSRFSGSGSGTDFTLTISSLQPEDFATYYCQQALSFPFTFGGGTKVEIK
notes: IgG
B7: SA-8 (antibody, V domains shown)
VH: QVQLVESGGGVVQPGRSLRLSCAASGFTFSSYGMHWVRQAPGKGLEWVAVISYDGSNKYYADSVKGRFTISRDNSKNTLYLQMNSLRAEDTAVYYCAKEPRSYWHGYGMDVWGQGTTVTVSS
VL: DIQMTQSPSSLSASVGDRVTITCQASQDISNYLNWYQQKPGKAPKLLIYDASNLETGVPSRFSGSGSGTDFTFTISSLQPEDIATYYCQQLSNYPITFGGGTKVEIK
notes: IgG; also called SA-8 (parental)
B8: SA-20 (antibody, V domains shown)
VH: B7 VH
VL: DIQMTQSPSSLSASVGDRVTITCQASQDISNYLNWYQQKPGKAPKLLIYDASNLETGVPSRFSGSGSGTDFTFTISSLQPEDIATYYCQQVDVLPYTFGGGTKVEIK
notes: IgG
B9: SA-24 (antibody, V domains shown)
VH: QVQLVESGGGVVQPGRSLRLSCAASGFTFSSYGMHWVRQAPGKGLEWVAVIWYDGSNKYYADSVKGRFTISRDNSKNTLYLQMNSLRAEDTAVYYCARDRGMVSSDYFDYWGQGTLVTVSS
VL: B4 VL with P91R, Y92L, N93D, F94W, L96Y
notes: IgG
B10: SA-55 (antibody, V domains shown)
VH: EVQLVESGGGLVQPGGSLRLSCAASGFTFSSYWMSWVRQAPGKGLEWVANIKQDGSEKYYVDSVKGRFTISRDNAKNSLYLQMNSLRAEDTAVYYCARGSPYYDAYDFDLWGRGTLVTVSS
VL: B5 VL with M4L, S28A, E50D, D91Y, N92E, L94F, Y96W
notes: IgG
B11: SA-51 (antibody, V domains shown)
VH: QVQLVQSGAEVKKPGSSVKVSCKASGGTFSSYAISWVRQAPGQGLEWMGSIIPIFGTANYAQKFQGRVTITADESTSTAYMELSSLRSEDTAVYYCARGGYAAGTDYYMGVWGKGTTVTVSS
VL: not shown
notes: IgG
B12: SA-9 (antibody, V domains shown)
VH: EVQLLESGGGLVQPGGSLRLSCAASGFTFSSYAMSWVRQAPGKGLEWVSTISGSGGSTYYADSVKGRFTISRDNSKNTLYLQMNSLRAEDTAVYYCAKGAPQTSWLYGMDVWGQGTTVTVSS
VL: B6 VL with L92Y, S93L, F94Y, F96I, I106N, K107Q
notes: IgG
B13: SA-49 (antibody, V domains shown)
VH: EVQLVESGGGLVKPGGSLRLSCAASGFTFSSYSMNWVRQAPGKGLEWVSSISSSSSYIYYADSVKGRFTISRDNAKNSLYLQMNSLRAEDTAVYYCARGAPSMQYSPYYYYGMDVWGQGTTVTVSS
VL: B6 VL with A91V, L92S, S93L, F94Y, F96P
notes: IgG
B14: SA-33 (antibody, V domains shown)
VH: QVQLVQSGAEVKKPGSSVKVSCKASGGTFSSYAISWVRQAPGQGLEWMGGIIPIFGTASYAQKFQGRVTITADESTSTAYMELSSLRSEDTAVYYCARDVGMARGDPYGMDVWGQGTTVTVSS
VL: B6 VL with Y49S, Q89L, L92Y
notes: IgG
B15: SA-54 (antibody, V domains shown)
VH: QLQLQESGPGLVKPSETLSLTCTVSGGSISSSSYYWGWIRQPPGKGLEWIGSIYYSGSTYYNPSLKSRVTISVDTSKNQFSLKLSSVTAADTAVYYCARGSGIAAADTDGLPMDVWGQGTTVTVSS
VL: B6 VL with A91V, L92Y, S93L, F96I
notes: IgG
B16: SA-5 (antibody, V domains shown)
VH: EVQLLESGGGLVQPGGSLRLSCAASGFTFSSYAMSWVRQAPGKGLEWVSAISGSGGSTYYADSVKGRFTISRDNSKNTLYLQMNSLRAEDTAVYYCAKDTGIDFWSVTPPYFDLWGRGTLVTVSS
VL: B6 VL with M4L, G28D, A91G, L92Y, S93I, F96R
notes: IgG; also called SA-5 (parental)
B17: SA-46 (antibody, V domains shown)
VH: EVQLLESGGGLVQPGGSLRLSCAASGFTFSTYAMSWVRQAPGKGLEWVSAISGSGGSTYYADSVKGRFTISRDNSKNTLYLQMNSLRAEDTAVYYCARESYDSSLHYYGMDVWGQGTTVTVSS
VL: EIVLTQSPGTLSLSPGERATLSCRASQSVSSSYLAWYQQKPGQAPRLLIYGASSRATGIPDRFSGSGSGTDFTLTISRLEPEDFAVYYCQQHFSLPPTFGGGTKVEIK
notes: IgG

Molecular target: T3, human SIRPA overexpressed on CHO cells (human, UniProt P78324 31-504)
T3 construct: also called CHO-huSIRPA
Experiment: flow, CHO-huSIRPA;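 further: Anti-SIRPA antibodies applied at 1 µg/mL for 1 h on ice, binding read by flow cytometry using a PE-labelled secondary antibody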

relative MFI [fold over background] | Binder
41.2 | B1
0.972 | B2
0.989 | B3
0.768 | B4
4.62 | B5
2.13 | B6
57.8 | B7
5.19 | B8

Molecular target: T1, mouse SIRPA overexpressed on CHO cells
Experiment: flow, CHO-muSIRPA;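 on relative MFI: antibody binding measured by flow cytometry: cells stained with 1 ug/ml test antibody for 1 h on ice, detected with PE-labelled secondary antibody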

binding result | Binder
no binding (tested: 1 ug/ml) | B1
no binding (tested: 1 ug/ml) | B2
no binding (tested: 1 ug/ml) | B3
no binding (tested: 1 ug/ml) | B4
no binding (tested: 1 ug/ml) | B9
no binding (tested: 1 ug/ml) | B5
no binding (tested: 1 ug/ml) | B10
no binding (tested: 1 ug/ml) | B11
no binding (tested: 1 ug/ml) | B12
no binding (tested: 1 ug/ml) | B13
no binding (tested: 1 ug/ml) | B6
no binding (tested: 1 ug/ml) | B14
no binding (tested: 1 ug/ml) | B15
no binding (tested: 1 ug/ml) | B16
no binding (tested: 1 ug/ml) | B17
no binding (tested: 1 ug/ml) | B7
no binding (tested: 1 ug/ml) | B8

Molecular target: T1, mouse SIRPA overexpressed on CHO cells
Experiment: flow, CHO-muSIRPA;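 on relative MFI: antibody binding measured by flow cytometry: cells stained with 1 ug/ml test antibody for 1 h on ice, detected with PE-labelled secondary antibody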
Remark: another data set of the same source

relative MFI [fold over background] | Binder
0.595 | B1
0.851 | B2
0.476 | B3
0.512 | B4
0.542 | B9
0.583 | B5
0.464 | B10
0.646 | B12
0.53 | B13
0.56 | B6
0.708 | B14
0.461 | B15
0.533 | B16
0.476 | B17
0.5 | B7
0.786 | B8

Molecular target: Human SIRPb D1 Fc (human, UniProt O00241 30-148, limits assumed)
Experiment: ForteBio IgG avid;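 further: antibody IgG captured on AHQ biosensors, then 100 nM Fc-fused SIRP antigen applied for 3 min, followed by 3 min buffer dissociation, kinetics fitted to a 1:1 model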
Procedure: (§1) Briefly, ForteBio affinity measurements were performed by loading IgGs on-line onto AHQ sensors. Sensors were equilibrated off-line in assay buffer for 30 min and then monitored on-line for 60 seconds for baseline establishment. For avid binding measurement, sensors with loaded IgGs were exposed to 100 nM antigen (human SIRPA or SIRPβ1 Fc fusion) for 3 min, afterwards they were transferred to assay buffer for 3 min for off-rate measurement. Additional avid binding was determined by loading biotinylated SIRPA monomer on SA sensors and exposure to 100 nM IgG in solution. Monovalent binding measurements were obtained by loading human SIRPA or SIRPβ1 Fc fusion antigens to AHQ sensor and followed by exposure to 100 nM anti-SIRPA antibody Fab. Additional monovalent measurements were made by loading biotinylated human SIRPA or SIRPβ1 monomer to SA sensor followed by exposure to 100 nM Fab in solution. Kinetics data were fit using a 1:1 binding model in the data analysis software provided by ForteBio.

Chain of Human SIRPb D1 Fc (O00241 30-148 limits assumed): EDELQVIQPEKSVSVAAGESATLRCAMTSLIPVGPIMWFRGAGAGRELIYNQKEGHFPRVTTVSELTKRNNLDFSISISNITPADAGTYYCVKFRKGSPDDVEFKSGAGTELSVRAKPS

binding result | Kd [nM] | Binder
no binding (tested: 100 nM) | – | B1
no binding (tested: 100 nM) | – | B2
no binding (tested: 100 nM) | – | B3
– | 28.4 | B4
no binding (tested: 100 nM) | – | B5
no binding (tested: 100 nM) | – | B6
no binding (tested: 100 nM) | – | B8

Molecular target: T2, Mouse SIRPA D1 Fc
Experiment: ForteBio IgG avid;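 further: antibody IgG captured on AHQ biosensors, then 100 nM Fc-fused SIRP antigen applied for 3 min, followed by 3 min buffer dissociation, kinetics fitted to a 1:1 model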
Procedure: as §1

binding result | Binder
no binding (tested: 100 nM) | B1
no binding (tested: 100 nM) | B2
no binding (tested: 100 nM) | B3
no binding (tested: 100 nM) | B4
no binding (tested: 100 nM) | B9
no binding (tested: 100 nM) | B5
no binding (tested: 100 nM) | B10
no binding (tested: 100 nM) | B11
no binding (tested: 100 nM) | B12
no binding (tested: 100 nM) | B13
no binding (tested: 100 nM) | B6
no binding (tested: 100 nM) | B14
no binding (tested: 100 nM) | B15
no binding (tested: 100 nM) | B16
no binding (tested: 100 nM) | B17
no binding (tested: 100 nM) | B7
no binding (tested: 100 nM) | B8
